Experimental findings from patent US20230151068A1 are described below.

The assay addresses biotinylated His-Avi-TEAD (194-411) (UniProt P28347). Briefly: SSM screen, enrichment after two rounds of sorting.
The molecule GSPDEYVERAKECCKKGDIQCCLRYFEESGDPNVMLICLFCP (designed binder) [I05V variant of SEQ ID NO: 1] showed an enrichment score of -0.27.
As for GSPDEYIERAVECCKKGDIQCCLRYFEESGDPNVMLICLFCP (designed binder) [K09V variant of SEQ ID NO: 1], the figure is -8.88; as for GSPDEYIERFKECCKKGDIQCCLRYFEESGDPNVMLICLFCP (designed binder) [A08F variant of SEQ ID NO: 1], -4.33.
As for GSPDEYIEWAKECCKKGDIQCCLRYFEESGDPNVMLICLFCP (designed binder) [R07W variant of SEQ ID NO: 1], the figure is -1.28; as for GSPFEYIERAKECCKKGDIQCCLRYFEESGDPNVMLICLFCP (designed binder) [D02F variant of SEQ ID NO: 1], -3.41; as for GSPDEYIVRAKECCKKGDIQCCLRYFEESGDPNVMLICLFCP (designed binder) [E06V variant of SEQ ID NO: 1], -1.55.
GSPDEYIEVAKECCKKGDIQCCLRYFEESGDPNVMLICLFCP (designed binder) [R07V variant of SEQ ID NO: 1] came in with an enrichment score of -2.31.
The value for GSWDEYIERAKECCKKGDIQCCLRYFEESGDPNVMLICLFCP (designed binder) [P01W variant of SEQ ID NO: 1] was -9.1; that for GSPDEYIERVKECCKKGDIQCCLRYFEESGDPNVMLICLFCP (designed binder) [A08V variant of SEQ ID NO: 1] was -4.43.
As for GSPDEYFERAKECCKKGDIQCCLRYFEESGDPNVMLICLFCP (designed binder) [I05F variant of SEQ ID NO: 1], the figure is -8.36.
The value for GSPDEFIERAKECCKKGDIQCCLRYFEESGDPNVMLICLFCP (designed binder) [Y04F variant of SEQ ID NO: 1] was 0.67; that for GSPDEYIERAKVCCKKGDIQCCLRYFEESGDPNVMLICLFCP (designed binder) [E10V variant of SEQ ID NO: 1] was -1.77; that for GSPDEYWERAKECCKKGDIQCCLRYFEESGDPNVMLICLFCP (designed binder) [I05W variant of SEQ ID NO: 1] was -7.46.
Molecule GSFDEYIERAKECCKKGDIQCCLRYFEESGDPNVMLICLFCP (designed binder) [P01F variant of SEQ ID NO: 1] gave an enrichment score of -1.3.
The value for GSPDFYIERAKECCKKGDIQCCLRYFEESGDPNVMLICLFCP (designed binder) [E03F variant of SEQ ID NO: 1] was 0.32.
As for GSPDEYIFRAKECCKKGDIQCCLRYFEESGDPNVMLICLFCP (designed binder) [E06F variant of SEQ ID NO: 1], the figure is -1.96; as for GSPDEYIERAKFCCKKGDIQCCLRYFEESGDPNVMLICLFCP (designed binder) [E10F variant of SEQ ID NO: 1], -1.6.
The value for GSPDEWIERAKECCKKGDIQCCLRYFEESGDPNVMLICLFCP (designed binder) [Y04W variant of SEQ ID NO: 1] was -2.47; that for GSPDEYIERAFECCKKGDIQCCLRYFEESGDPNVMLICLFCP (designed binder) [K09F variant of SEQ ID NO: 1] was -3.52.
In turn, GSPWEYIERAKECCKKGDIQCCLRYFEESGDPNVMLICLFCP (designed binder) [D02W variant of SEQ ID NO: 1] had an enrichment score of -2.95.
The value for GSPDWYIERAKECCKKGDIQCCLRYFEESGDPNVMLICLFCP (designed binder) [E03W variant of SEQ ID NO: 1] was -1.4; that for GSPDEYIEFAKECCKKGDIQCCLRYFEESGDPNVMLICLFCP (designed binder) [R07F variant of SEQ ID NO: 1] was -1.04; that for GSPDEYIWRAKECCKKGDIQCCLRYFEESGDPNVMLICLFCP (designed binder) [E06W variant of SEQ ID NO: 1] was -1.53.
